Substitutions are numbered along the chain they refer to.
T1: CD70 (Homo sapiens, UniProt P32970)
T1 sequence (P32970 1-193): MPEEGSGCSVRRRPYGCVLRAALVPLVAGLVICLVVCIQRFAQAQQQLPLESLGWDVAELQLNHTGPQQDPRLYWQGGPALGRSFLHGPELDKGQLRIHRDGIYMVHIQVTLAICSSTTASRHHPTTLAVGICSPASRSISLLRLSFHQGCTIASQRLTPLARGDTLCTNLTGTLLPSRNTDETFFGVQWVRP

B1: anti-CD70 human monoclonal antibody 69A7 (antibody, V domains shown)
VH: QVQLQESGPGLVKPSETLSLTCTVSGGSVSSDYYYWSWIRQPPGKGLEWLGYIYYSGSTNYNPSLKSRVTISVDTSKNQFSLKLRSVTTADTAVYYCARGDGDYGGNCFDYWGQGTLVTVSS
VL: EIVLTQSPATLSLSPGERATLSCRASQSVSSYLAWYQQKPGQAPRLLIFDASNRATGIPARFSGSGSGTDFTLTISSLEPEDFAVYYCQQRSNWPLTFGGGTKVEIK
notes: Human IgG from hybridoma; also called HuMAb 69A7; FITC-conjugated 69A7
B2: 2H5 NF: 2H5 HuMAb lacking fucosyl residues, expressed in CHO cell line Ms704-PF (antibody, V domains shown)
VH: QVQLVESGGGVVQPGRSLRLSCAASGFTFSSYIMHWVRQAPGKGLEWVAVISYDGRNKYYADSVKGRFTISRDNSKNTLYLQMNSLRAEDTAVYYCARDTDGYDFDYWGQGTLVTVSS
VL: B1 VL with F49Y, S92T

How the values were obtained:
CD70 = target: T1, CD70; test: Epitope binding experiments using BIAcore
Experimental: Such cross-competing antibodies can be identified based on their ability to cross-compete with 2H5, 10B4, 8B5, 18E7, 69A7, 69A7Y or 1F4 in standard CD70 binding assays. For example, standard ELISA assays can be used in which a recombinant human CD70 protein is immobilized on the plate, one of the antibodies is fluorescently labeled and the ability of non-labeled antibodies to compete off the binding of the labeled antibody is evaluated. Additionally or alternatively, BIAcore analysis can be used to assess the ability of the antibodies to cross-compete.

activated human B cells = test: Binding to and ADCC of activated human B cells (51Cr); format: cell-based
Experimental: In this study, a HuMAb anti-CD70 antibody and the nonfucosylated form were tested for their ability to mediate ADCC effects on human B cells. Frozen human spleen cells were thawed and B cells were negatively purified by magnetic beads. Purified B cells were cultured at 2×10^6/ml in RPMI+10% FBS supplemented with NEAA, sodium pyruvate, β-ME and penicillin/streptomycin. B cells were activated by 10 μg/ml of LPS and 5 μg/ml anti-CD40 for 3 days. The cells were harvested, washed and an aliquot was stained with biotin conjugated nonfucosylated 2H5 (2H5 NF-bio)+streptavidin-APC. Human peripheral blood mononuclear effector cells were purified from heparinized whole blood by standard Ficoll-Paque separation and cultured overnight in of 50 U/ml IL-2. The activated B cells were labeled with 100 μCi of Na2 ^51CrO4 (Perkin Elmer, Wellesley, Mass.) per 1×10^6 cells for 1 hour. Effector cells were added to labeled target cells at a ratio of […] in the presence of serial dilutions of 2H5 and 2H5 NF (non-fucosylated). In addition, the test articles were assayed at 10 μg/ml in the presence of 20 μg/ml murine anti-CD 16 antibody 3G8 or mouse isotype control antibody. Following […] for 4 hours at 37° C., cells were centrifuged and the supernate was read on the Cobra II auto-gamma counter (Perkin Elmer) with a reading window of 240-400 KeV. The percent specific lysis was calculated as: (experimental release−spontaneous release)/(maximal release−spontaneous release)×100 where: (i) target cells with no effector cells and no antibody control for spontaneous release and (ii) target and effector cells in presence of 3% Lysol detergent control for maximal release. Percent specific lysis was plotted against antibody concentration and the data was analyzed by non-linear regression, sigmoidal dose response (variable slope) using GraphPad Prism™ 3.0 software (San Diego, Calif.).

[1] = test system: CMV activated CD70+/CD4+ cells; test: CMV Ag stimulated human CD4+ T cell expansion; format: cell-based; details: 2 μg/ml, day 9
Experimental: CMV positive pre-screened donors were cultured in AIM-V media supplemented with 10% heat-inactivated FCS at 1×10^6 cells/ml on 24-well culture plates and stimulated with 5.0 μg/ml of CMV lysate in the presence of 2 μg/ml of biotinylated 2H5, 2H5 NF or hIgG1nf control Abs. Cells were harvested on day 9 and the number of viable cells/ml in each culture was determined by counting an aliquot using a hemocytometer and trypan blue exclusion. The cells were washed in staining buffer and blocked with 5% human serum. Biotinylated 2H5, 2H5 NF, or hIgG1nf were added to an equal volume of cells at 20 μg/ml final concentration. Cells were incubated for 30 minutes, washed and stained with anti-CD4-FITC and PE-conjugated streptavidin. Cells were again incubated for 30 minutes, washed twice and then fixed and permeabilized using BD Cytofix/Cytoperm kit. The cells were washed twice in perm/wash buffer and intracellular stained with anti-INFγ-APC (BD Clone B27). […] Cells were analyzed by flow cytometry for CD70 surface and INFγ intracellular expression by gating on live CD4+ cells. The number of CD4+/CD70+ and CD4+/INFγ+ cells/ml in each condition were calculated by multiplying the percent CD70+ or INFγ+ cells in the CD4 gate by the percent of total CD4+ cells times the total number of viable cells/ml ((%CD70+ or INFγ+)×(%CD4+)×(total viable cells/ml)).

[2] = test system: peptide specific CD8+ T cells; test: CMV peptide specific CD8+ T cell expansion in PBMC; format: cell-based, human
Experimental: Human MHC class I haplotype B*3501+ peripheral blood mononuclear cells (PBMC) pre-screened for cytomegalovirus (CMV) specific T cell responses (Astarte, Inc) were cultured in the presence of 25 ng/ml of B*3501 binding CMV peptide […] (SEQ ID NO:90) (ProImmune, Oxford, UK) and serial dilutions of the HuMAb 2H5 for 11 days. Cultures were analyzed by flow cytometry for CD8+ T cells by PE conjugated anti-CD8 staining (clone RPA-T8, BD Biosciences), for peptide specific CD8+ T cells by APC labeled peptide-MHC Class I pentameric oligomer staining (F114-4B; ProImmunc) and for viability by lack of propidium iodide staining. An isotype control antibody was used as a negative control. […] CD8+ T cell expansion (FIG. 37A). […] Data is representative of one additional experiment performed with the same donor.
Human MHC class I haplotype B*3501+PBMC pre-screened for cytomegalovirus (CMV) specific T cell responses (Astarte, Inc) were cultured in presence of 25 ng/ml of B*3501 binding CMV peptide […] (ProImmune) (SEQ ID NO:90) and 20 μgs/ml of the HuMAb 2H5 in the presence or absence of serial dilutions of an anti-human CD16 (FcRγIII) functional blocking Ab (clone 3G8; BD Biosciences) for 11 days and were then analyzed by flow cytometry for peptide specific CD8+ cell numbers as described above. […] Approximately 1000-fold more 3G8 was required to reverse 2H5 NF mediated inhibition compared to 2H5.

Molecule | epitope on CD70 (CD70) | potency relative to 2H5 (activated human B cells; ADCC of activated human B cells) | activated B cells bound (activated human B cells; biotin conjugated 2H5 NF + streptavidin-APC, FACS) [%] | lysis of activated human B cells (ADCC) (activated human B cells; effector to target 1:100 as printed, 4 hours) | depletion of CMV activated CD70+/CD4+ cells [1] [%] | peptide specific CD8+ T cell expansion ([2]; 25 ng/ml CMV peptide, 11 days) | total CD8+ cell numbers ([2]; 25 ng/ml CMV peptide, 11 days) | 3G8 required to reverse inhibition compared to 2H5 ([2]; antibody 20 μgs/ml) | effect of anti-CD16 Ab 3G8 on inhibition of peptide specific CD8+ T cell expansion ([2]; antibody 20 μgs/ml, serial dilutions of 3G8)
B1 | distinct epitopes | – | – | – | – | – | – | – | –
B2 | – | approximately 10 fold | ~60 | induced lysis | 97 | completely inhibited | no significant reduction | Approximately 1000 fold | Dose dependent reversal

— patent US20100150950A1, “HUMAN ANTIBODIES THAT BIND CD70 AND USES THEREOF” (Medarex, Inc., priority 2006, published 2010)
